Experimental data reported in the RNAGym collection of RNA variant scans (doi:10.1093/molbev/msab373).

B1: Azoarcus group I ribozyme (parent)
chain: GUGCCUUGCGCCGGGAAACCACGCAAGGGAUGGUGUCAAAUUCGGCGAAACCUAAGCGCCCGCCCGGGCGUAUGGCAACGCCGAGCCAAGCUUCGGCGCCUGCGCCGAUGAAGGUGUAGAGACUAGACGGCACCCACCUAAGGCAAACGCUAUGGUGAAGGCAUAGUCCAGGGAGUGGCGAAAGUCACACAAACCGG

Variants of: B1
Assay: reverse-splicing fitness (ratio to wild type); higher = more active; in vitro selection; Mg2+ level not given
Method in brief: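 An in vitro group I ribozyme library with randomized positions was T7-transcribed and gel-purified. In triplicate, 10 pmol RNA in EPPS pH 7.5 was reacted with 50 pmoles of a 30-nt RNA substrate for 1 h at 37 °C across several added MgCl2 levels (1–48 mM), then stopped with EDTA. Products were reverse transcribed from a substrate-complementary primer, PCR-amplified and sequenced (HiSeq 4000). Fitness is a variant's read proportion after selection over that before, normalised to wild type.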

| Variant | reverse-splicing fitness |
| --- | --- |
| C82U A111U A120U A145G C150G U176A | 0.00562 |
| C82U A111U A120U A145U C150A | 0.00625 |
| C82U A111U A120U A145U C150U | 0.0175 |
| C82U A111U A120U A145U C150G | 0.00727 |
| C82U A111U A120G U176G | 0.00474 |
| C82U A111U A120G U176C | 0.0165 |
| C82U A111U A120G U176A | 0.0123 |
| C82U A111U A120U A145G C150U C169A U176C | 0.0032 |
| C82U A111U A120U A145G C150U C169A U176G | 0.00269 |
| C82U A111U A120U A145G C150U C169A U176A | 0.00543 |
| C82U A111U A120U A145G C169U | 0.00389 |
| C82U A111U A120U A145G C169G | 0.00363 |
| C82U A111U A120U A145G C169A | 0.0029 |
| C82U A111U A120U C150A U176A | 0.00551 |
| C82U A111U A120U C150A U176G | 0.00299 |
| C82U A111U A120U C150A U176C | 0.00596 |
| C82U A111U A120U A145G C169G U176C | 0.0035 |
| C82U A111U A120U A145G C169G U176G | 0.00146 |
| C82U A111U A120U A145G C169G U176A | 0.00271 |
| C82U A111U A120U C150U C169U U176C | 0.0041 |
| C82U A111U A120U C150U C169U U176A | 0.00527 |

| Variant | reverse-splicing fitness |
| --- | --- |
| C82U A111U A120U C150U C169U U176G | 0.00244 |
| C82U A111U A120G C150U C169A U176G | 0.005 |
| C82U A111U A120G C150U C169A U176C | 0.0129 |
| C82U A111U A120G C150U C169A U176A | 0.0156 |
| C82U A111U A120U A145U C150G C169U U176C | 0.00272 |
| C82U A111U A120U A145U C150G C169U U176A | 0.00242 |
| C82U A111U A120U A145U C150G C169U U176G | 0.0024 |
| C82U A111U A120G C150G C169A | 0.00782 |
| C82U A111U A120G C150G C169U | 0.00755 |
| C82U A111U A120G C150G C169G | 0.00757 |
| C82U A111U A120U A145G C150A C169G | 0.00478 |
| C82U A111U A120U A145G C150A C169A | 0.00571 |
| C82U A111U A120U A145G C150A C169U | 0.00374 |
| C82U A111U A120G A145U C150U C169A U176G | 0.00462 |
| C82U A111U A120G A145U C150U C169A U176C | 0.00959 |
| C82U A111U A120G A145U C150U C169A U176A | 0.0127 |
| C82U A111U A120U A145U C150A C169U U176C | 0.00234 |
| C82U A111U A120U A145U C150A C169U U176A | 0.00233 |
| C82U A111U A120U A145U C150A C169U U176G | 0.00195 |
| C82U A111U A120U A145C U176G | 0.00259 |
| C82U A111U A120U A145C U176A | 0.00627 |

| Variant | reverse-splicing fitness |
| --- | --- |
| C82U A111U A120U A145C U176C | 0.00756 |
| C82U A111U A120U C150U C169A | 0.00397 |
| C82U A111U A120U C150U C169G | 0.00465 |
| C82U A111U A120U C150U C169U | 0.00426 |
| C82U A111U A120U A145C C150U C169G U176A | 0.00283 |
| C82U A111U A120U A145C C150U C169G U176G | 0.00171 |
| C82U A111U A120U A145C C150U C169G U176C | 0.00287 |
| C82U A111U A120U A145U C150A C169A U176A | 0.00233 |
| C82U A111U A120U A145U C150A C169A U176G | 0.00206 |
| C82U A111U A120U A145U C150A C169A U176C | 0.00283 |
| C82U A111U A120G C150A C169U U176C | 0.0171 |
| C82U A111U A120G C150A C169U U176G | 0.00726 |
| C82U A111U A120G C150A C169U U176A | 0.0209 |
| C82U A111U A120U A145U C150U C169A U176G | 0.00202 |
| C82U A111U A120U A145U C150U C169A U176A | 0.00292 |
| C82U A111U A120U A145U C150U C169A U176C | 0.00275 |
| C82U A111U A120U A145G C150U | 0.022 |
| C82U A111U A120U A145G C150G | 0.00817 |
| C82U A111U A120U A145G C150A | 0.00852 |
| C82U A111U A120U A145G C150A C169A U176A | 0.0063 |
| C82U A111U A120U A145G C150A C169A U176C | 0.00382 |

| Variant | reverse-splicing fitness |
| --- | --- |
| C82U A111U A120U A145G C150A C169A U176G | 0.00245 |
| C82U A111U A120G C150U C169G U176G | 0.00456 |
| C82U A111U A120G C150U C169G U176C | 0.0168 |
| C82U A111U A120G C150U C169G U176A | 0.0146 |
| C82U A111U A120G C150A U176A | 0.0114 |
| C82U A111U A120G C150A U176G | 0.00633 |
| C82U A111U A120G C150A U176C | 0.0164 |
| C82U A111U A120G C150U C169A | 0.0102 |
| C82U A111U A120G C150U C169G | 0.00909 |
| C82U A111U A120G C150U C169U | 0.00882 |
| C82U A111U A120U A145C C150U C169A U176C | 0.00253 |
| C82U A111U A120U A145C C150U C169A U176A | 0.00217 |
| C82U A111U A120U A145C C150U C169A U176G | 0.00178 |
| C82U A111U A120G A145U C169A U176C | 0.0101 |
| C82U A111U A120G A145U C169A U176G | 0.00391 |
| C82U A111U A120G A145U C169A U176A | 0.0113 |
| C82U A111U A120U A145U C150A C169U | 0.00279 |
| C82U A111U A120U A145U C150A C169G | 0.00254 |
| C82U A111U A120U A145U C150A C169A | 0.00215 |
| C82U A111U A120U A145G C150G C169U | 0.00706 |
| C82U A111U A120U A145G C150G C169G | 0.00647 |
